This passage reports protein production results from a protein production outcome set (Wang et al. 2014).

A short description of the data set: label from the status in PepcDB records.

“MDDVVEELLRIVVESLQYEEGNLNEAVDLAINFSTKNSIFFDQLLSLSTYCGSEGSYELAYVFAKTTANLSTGSEKAVAHHNAGTASYFLNLPMEAEEHYKLALQADPKHVNTHSNYGLLLSDMGRRDEAEQQYKLALKLDPKHVNTHYNYGILLYDMRRLDEAGEQYKLALESEPKHVKTHYNYGNLLSDMGSLDEAEEQYKLALESEPNDADIHYNYGLLLYNMESLDEAEEQYKLALESEPNDASTHSNYGILLSDMGRRDEAEEQYKLALESDPKHVNTHYNYGNLLSDMGRLDEAEEQYKLALESDPKHVKTHYNYGNLLSDMGRLDEAEEQYKLALESDPNDASIHSNYGILLSDMGRHEEAEEQYKLALETDPNDADIHYNYGNLLKRMGRLDEVEKQYILALEADPKHVNTHYNYGKLLEQMGRLDEAEKQYKIAIGIDPKMPNSHGAYGLLLFFQDLEEEAIKETEVASRLCRENGDKVKEHLSLAWLYEKFANKYYNLKDYKKSGEYAEISGDEYIEAGKQAGESFKDTSLTKGYTLKGRAKIRKLEIKTPFYKDIIKRIWNKESYEIEKFTKIINCIKDASICYEKAAKASPKDNQLCNACSISMSCLSEMLDYMFAVIKQKKTPELEDKLKNWNEKLSIAKGAYQEHSKGELFIESLYKLMGCIQNLDKYKKYGTREYGRAFEECRKELTEIANNIEGPIQKIIENVTKKMDVCRLKQLPYAGTETGYIPQPNKLSQFLKWILDPKRIGIGVFGIIITVIVNHYNEYLFSLIKRTVTMLLSKI”: the protein production entry was “failed”.
For “MDELIKILHAQFGHASFRPGQREVVEDVLAGRDVLAMLPTGSGKSLCYQLPAYLLPGSVLVVSPLVSLMEDQVEQLRRRGEKRVIAFHSLLDAEEKWQALASLPDFRFIYASPEMLQSAKFLTALGRTRISLFVVDEAHCISQWGYDFRPDFLKLGTVRRALGSPPCLALTATAPPEVRDDIVRTLGMERACLHIYSVDRPNIALKVEYCLSAEEKAARLVEYARQLEGPGIVYFSSRQWAEEMARRLEQSGAGRVAYYHAGMDGEQRLLVQQQFLYGQLDIVCCTSAFGMGVNKENVRFVLHFHMPAQLEAYVQEIGRAGRDGAPSLAVLFYADGDRAIAQAVAEAELPDPHELREWCWRLPDNVAVEQWNAAIEASGFTEIQKRLLTYLLEWGQTAPPGRLTAEVKEQLYERMAAAIETRRRWKRKKLHEMDDWVHTSSCRRAMIVRAFGEELMDKPGDCCDCCGLRLDAYMRDTRRLAAAPIRHWREELWQMFFSRGRQDETAK” the value was “failed”; for “MDEQEFRKQLTLKPVEEEHIDQFNELLSYVFQVTEADIEESGFENKRAFIKSKQPILELSKVFGWFHENQLISQIAIYPCEVNIHGALYKMGGVTGVGTYPEYANHGLMKDLIQTALEEMRQDKQWISYLFPYNIPYYRRKGWEIMSDKLSFKIRDTQLPKTVPVPGMIERLAVDHPDVFDVYARFARQNHGALIRSAFNWEEYWRFENEEERTAAVYYGANQEPLGVLFYWVADEVFHIKEMFYLNQEARNGLWNFITAHFSMVYWVKGDIYKNEPLAFLLEDSQIKESIEPYYMARIVDVKAFLENFPFESTAKPFHFVVKDPVAEWNNGIFGLIWDENDQVTITDEPLGTAVHLDIQTLTCLVMNYRRPSYLHRIERIDTDKETLNSLERIFPDQEAYFSDYF”, “not failed”; for “MDFHIRKATNSDAEAIQHVATTSWHHTYQDLIPSDVQDDFLKRFYNVETLHNRISATPFAVLEQADKVIGFANFIELEKGKSELAAFYLLPEVTQRGLGTELLEVGMTLFHVPLPMFVNVEKGNETAIHFYKAKGFVQVEEFTEDFYGYPLETIRFNLNHHAFEEE”, “not failed”.
For “MDFHTDTIILLAGLLFIVGVITAKFSTRLGVPALVLFILVGMLVGSDGLGLIHFDFSQAHFAQLIGIFALVIILFEGGLQTKWKTVQSVAVPSLSLATFGVLITSTLVAVAAKYVLGVSWLEAYLFGAIVGSTDAAAVFAVLKEQNIKDRLATTLEAESGTNDPMAVFLTLSLIELITIGSMNPLHLFGSFLWQMGAGLILGFGLGKLGSYSINKINLDSSGLYPVFALAFALLTYSVTAMIGASGLLAVYVAALVIGNQDLTYRHSIFRFNEGFAWMMQMLMFIILGLLVFPNQLFEASIFIKGILLSLILMLVARPVAVFLTTIKMRFDWKEKLFLSWAGLRGAVPIVLATFPMTAGLENSPLFFNVVFFVVLTSALIQGSTIAHFANKLQLTGPQKTTPLHSLELVSIGKANAEIVELEMKQDTPVIGKTLEEINLPKDVLVNAIIRDEQLITPYGKTTIQADDILYVLVSKKKKRQLKELFQAKES” the value was “failed”.
For the sequence “MDGALRNRSARVVDSEHRTHPPGIRRSVCWSLLALDSRLHGRTSTQDRQVGCGRLWCRPSEARCGAMKLLVTGGGGFLGQALCRGLRARGHEVVSFQRGNYPVLRSLGVGQIRGDLADPQAVRHALAGIDAVFHNAAKAGAWGSYDSYHQANVVGTQNVIEACRATGVPRLIYTSTPSVTHRATNPVEGLGADEVPYGDNLRAAYAATKAIAERAVLAANDAQLATVALRPRLIWGPGDNHLLPRLAARARAGRLRMVGDGSNLVDSTYIDNAAQAHFDAFEHLAVGAACAGKAYFISNGEPLPMRELLNRLLAAVDAPAVTRSLPFKTAYRIGAVCETLWPLLRLPGEVPLTRFLVEQLCTPHWYSMQPARRDFGYVPRISIEEGLQRLRSSSSNDIAITG”, the protein production entry was “failed”.
Take “MDGFVQWMEKHFMPKASVIAAQRHLVAIRDAFVVTMPLMILGALAVLINNIPIPGYEDFLNKIFPMMYNDAPIWKSFGGNIWNGTFAIFAVLVAFLVAHNLVKSYGKDGIAAGTVSVASFFAVGGLEGMGATGLFIALIIALISGELFQRLSGNPKLVIKMPDGVPPAVAKSFAALLPAMITISLFSLITSILFALGIDNIVISFYEAVQQPFMGLANSYPSALLLAFITPFLWFFGLHGANMVDPLMQTINVPAIDANIKALEAGKAIPYIVNKPFFDSFVNLGGTGATLGLLIAIFIVGRRNKPYKVITNLSLAPGLFNINEPVMFGLPIVLNPIMFIPFILVPMVLVTVAYVATATGLVPAATFMPPWVTPPIIGGFLATKSIAGGVLAAVNLLISILIYMPFVKVATDQYLKQEAAAEAAE”: the protein production result is “failed”.
With “MDGKRVWLSDDELTRFIEQAETPHQRLAFLLAGRVGLRRSEIIEVCPQDLVDGPTGDHIRVWESYAKRDKYREPPVPQEVVTIAETLAYQQDDDEPLLDVAGSTVYRWVRRAADELEEETGDRGWQYLDVHDLRRTWGTYLLEQGVIPSVVMSFGGWEDWDTFRKHYLGEFSLEHHHHHH”, the protein production entry was “not failed”.
For “MDGSIRVSAKTVDDAITEALIQLGVTSDRLEYEVIEKGSSGFLGIGMKQAVIEARRKPEPVAEVKEETIPVEEVKPSVVKEQVSEPVQEKQEEKAEEEPARKKATELAEVSDEAIKAVEAFLNDTLKAMDMDVEIVSEVDSEGALSVEMKGSNMGILIGKRGQTLDALQYLANRVANKHQDGYVRVKLDTENYRARREETLRHLAKNIAFKVKRTRRAVSLEPMNPYERRIIHAALQSDPHVTTHSEGEEPYRKVVVTLKR” the value was “failed”; for “MDGTPGHNAINRLQLVATLAEREVMRYTPAGVPIVNCLLSYSGQAMEAQAARQVEFSIEALGAGKMASVLDRIAPGTVLECVGFLARKHRSSKALVFHISGCNVFVKDLEHHHHHH”, “failed”.
As to “MDGVGAHAHTGELRSAQALRSASLWLWPLLCWALLAGWPLGAHPLKHTAYHTVTRWDMDDGLPHNLVHAVAQGSDGVIWLGTWEGVARFNGRDFTVFDRQNTPGVELGGVFVVVRDGDGMLFGTAFDGVYRHQDGRWQQLGDASARHLAVSALLRRADGALWVGTPQTLYRIELDGRVVDVGRQAGLPRARITALSTDARGDLWIGTDVGLYQLPLGASAATAWGQAHGMADTPVRRLASDRQGGLLVAGDDGVWWWSRGGGLQRFRQGQRVDSLVMDRSGHLWMSLSAGTLVVHSGPDDPDEQIAISGVASPALLEDAEGLIWVGSTHGLFRVAEGAAHGVTIDDGLASDYVRSVLQTADGTVWVGSAVGLDRWRDGQIARVPFSRGSAGRVLEQSVLALADAGDGGVWAGTYSQGVLRLDAQGAVVQRIGAAEGLSSLSVRAVLPDGDALWIGTTAGLVRWHDGRARRYTAADGVPDGSVQVLYRDAQGTIWSGTDRGMTALSPDGGTRAWLGEQDFPGQNAFDFLRDPSGDLWIASDRGLLRLRGERFQVYDHRVGLPRDKVFRVIDDGRGYLWLSSNHGVFRIARRDFDQIDAGTREQLSVEVVDRSDGMPGNQGNGSSAPAGWLTQTGQLLFPTAAGLGVIDPARVGTLQGHRVPIVIERLVVDGMVQPLDGPHRLSADTRRIAIGYAGLNFRGPDKVRYRYRLDGFDPDWVDADSATEAVYTNLPPGRFRFRVQAMSLPVDWRQAALLGETSVVLELAPPWWRRGEVIGLGVLCLASVIYGFYLWRTASYRRRQRELNVVIDKRTRELSDKNLALQQASQEREALMRQLEYRASHDVLTALPNRREAERVLQQWLDEAQAGGAPLALALADIDHFKRINDAHGHEVGDAVLRAVGEVLADQEHAHCFAARHGGEEFLLAVTGLEAAHARALFEQQRQRLGTIAIAADEATVQCTASMGMAMSNEAHSRRELLALADRRLYHAKRQGRDRLIDQ”, the protein production result is given as “failed”.
For the sequence “MDHHAQHHPRSHACVLPNGLRLHLAHDPAASRAAAWLRVAAGSHDEPSAHPGLAHFLEHLSFLGGAAFPGDERLMPWLQVRGGQVNASTLGKTTDYFFEVTAEHLGAGLARLIDMLARPLLDIDAQRREREVLEAEYLARSADEQTLIDAALALGLPAGHPLRRFAAGRRDSLALESDAFQRALREFHAAHYHAGNCQLWLQGPQTLDELERLAQRACADLPGRAPGASPPPPPLLPFACEALALRLPGPPRLVLGFALDALRGADEQTLLAFAELLGDRSPGGLLAALGEQGLGESVALRVVHRDARQALLALTFELFDGSAAAALEAAFFDWLGALRDDAASLLAARRPLLAEPTAPLERLRQRVLGLPAEIRPACLDALRADRCLRLHLDSELDGAEARWSAGFRLSVAPVAAAPPLAAQRHAWRFELPLPPSAAAEGALFLRWRFPGVPARSRFLALRQALRPLCGQARLGGVEMGLEALGEDWSLSLLGPRDRLEAAVRPALARLLAAPPDWRANGERLSSAERRRSATGLPIRQLLDALPGLLGEPLAEVDDWRRTRWDALVMQAAMPDPRWMPGQAAGERLEPLPPRPGRHRRELAVDGESALLLFCPLPTQEVPMEAAWRLLARLHEPAFQRRLRDELQLGYALFCGFREVGARRGLLFAAQSPRACPARLLEHMETFLQRSAEALAQLPARRLAGLRKALADDLRRAPGSFAERARRAWAEHLGGGAGRSRLLAEAALGLSGDDLLAAQARLLEARGGWWVLSSRR”, the protein production result is given as “failed”.
With “MDHHHHHHHHMPRTTGMNVAVVGGGISGLAVAHHLRSRGTDAVLLESSARLGGAVGTHALAGYLVEQGPNSFLDREPATRALAAALNLEGRIRAADPAAKRRYVYTRGRLRSVPASPPAFLASDILPLGARLRVAGELFSRRAPEGVDESLAAFGRRHLGHRATQVLLDAVQTGIYAGDVEQLSVAATFPMLVKMEREHRSLILGAIRAQKAQRQAALPAGTAPKLSGALSTFDGGLQVLIDALAASLGDAAHVGARVEGLAREDGGWRLIIEEHGRRAELSVAQVVLAAPAHATAKLLRPLDDALAALVAGIAYAPIAVVHLGFDAGTLPAPDGFGFLVPAEEQRRMLGAIHASTTFPFRAEGGRVLYSCMVGGARQPGLVEQDEDALAALAREELKALAGVTARPSFTRVFRWPLGIPQYNLGHLERVAAIDAALQRLPGLHLIGNAYKGVGLNDCIRNAAQLADALVAGNTSHAP”, the protein production entry was “not failed”.
